How the values were obtained:
[1] = molecular target: T1, MAGE-A4 (100% identical in MAGEA8) peptide on HLA-A*02:01 (human); assay: cells that express the antigen: NCI-H1755; TCR-Ts of three donors; full-length, on cells
T1 peptide: KVLEHVVRV

[2] = molecular target: T2, MADD peptide on HLA-A*02:01 (human); assay: killing
T2 peptide: ILLEHKVVL

[3] = molecular target: T3, PSME2 peptide on HLA-A*02:01 (human); assay: killing
T3 peptide: KVLERVNAV

[4] = molecular target: T4, PTRF peptide on HLA-A*02:01 (human); assay: killing
T4 peptide: KLLEKVRKV

[5] = molecular target: T5, SYNE3 peptide on HLA-A*02:01 (human); assay: killing
T5 peptide: KLLDLQVRV

[6] = molecular target: T6, HNRNPR peptide on HLA-A*02:01 (human); assay: killing
T6 peptide: KVWGNVVTV

[7] = molecular target: T7, TSC1 peptide on HLA-A*02:01 (human); assay: killing
T7 peptide: SLLGHVIRL

[8] = molecular target: T8, GPC5 peptide on HLA-A*02:01 (human); assay: killing
T8 peptide: KLLEQVNRI

[9] = molecular target: T9, NSD1 peptide on HLA-A*02:01 (human); assay: killing
T9 peptide: KVQEQVHKV

[10] = molecular target: T10, CNOT1 peptide on HLA-A*02:01 (human); assay: killing
T10 peptide: KVLGIVVGV

[11] = molecular target: T11, AXIN1 peptide on HLA-A*02:01 (human); assay: killing
T11 peptide: ILDEHVQRV

[12] = molecular target: T12, MAGE-A4 (100% identical in MAGEA8) peptide on HLA-A*02:07 (human); assay: killing
T12 peptide: KVLEHVVRV

[13] = molecular target: T13, HERC4 peptide on HLA-A*02:01 (human); assay: killing
T13 peptide: KVLEILHRV

[14] = molecular target: T14, ANO5 peptide on HLA-A*02:01 (human); assay: killing
T14 peptide: IVMEHVVFL

[15] = molecular target: T15, RG1L peptide on HLA-A*02:01 (human); assay: killing
T15 peptide: FLLETVVRV

[16] = molecular target: T16, TP2 peptide on HLA-A*02:01 (human); assay: killing
T16 peptide: KILEDVVGV

[17] = molecular target: T17, GRP78 peptide on HLA-A*02:01 (human); assay: killing
T17 peptide: KVTHAVVTV

[18] = molecular target: T18, KIAA1033 peptide on HLA-A*02:01 (human); assay: killing
T18 peptide: KVLNKVITV

[19] = molecular target: T19, MIA3 peptide on HLA-A*02:01 (human); assay: killing
T19 peptide: KVLDKVFRA

[20] = molecular target: T20, TRMT1L peptide on HLA-A*02:01 (human); assay: killing
T20 peptide: VALEHFVLV

[21] = molecular target: T21, HTR5A peptide on HLA-A*02:01 (human); assay: killing
T21 peptide: KVLETLVTV

[22] = molecular target: T22, MAGE-A4 (100% identical in MAGEA8) peptide on HLA-A*02:05 (human); assay: killing
T22 peptide: KVLEHVVRV

[23] = molecular target: T23, ATAD2 peptide on HLA-A*02:01 (human); assay: killing
T23 peptide: KILEALQRV

B1: TCR3 of Tables 1A and 1B (TCR2 of the examples) (TCR, V domains shown)
Valpha: GESVGLHLPTLSVQEGDNSIINCAYSNSASDYFIWYKQESGKGPQFIIDIRSNMDKRQGQRVTVLLNKTVKHLSLQIAATQPGDSAVYFCAEASPRQDTGRRALTFGSGTRLQVQP
Vbeta: DAGVTQSPTHLIKTRGQQVTLRCSPKSGHDTVSWYQQALGQGPQFIFQYYEEEERQRGNFPDRFSGHQFPNYSSELNVNALLLGDSALYLCASSLWTGSGELFFGEGSRLTVL
E:T EC50 [1]: 0.01 effector:target ratio | binding result [2]: no recognition | binding result [3]: no recognition | binding result [4]: no recognition | binding result [5]: no recognition | binding result [6]: no recognition | binding result [7]: no recognition | binding result [8]: no recognition | binding result [9]: no recognition | binding result [10]: no recognition | binding result [11]: no recognition | binding result [12]: recognises | binding result [13]: no recognition | binding result [14]: no recognition | binding result [15]: no recognition | binding result [16]: no recognition | binding result [17]: no recognition | binding result [18]: no recognition | binding result [19]: no recognition | binding result [20]: no recognition | binding result [21]: no recognition | binding result [22]: recognises | binding result [23]: no recognition
